In IntAct's records for PubMed 11238952:

B1: Cyclic AMP-dependent transcription factor ATF-4 (Homo sapiens), P18848 (parent)
chain: MTEMSFLSSEVLVGDLMSPFDQSGLGAEESLGLLDDYLEVAKHFKPHGFSSDKAKAGSSEWLAVDGLVSPSNNSKEDAFSGTDWMLEKMDLKEFDLDALLGIDDLETMPDDLLTTLDDTCDLFAPLVQETNKQPPQTVNPIGHLPESLTKPDQVAPFTFLQPLPLSPGVLSSTPDHSFSLELGSEVDITEGDRKPDYTAYVAMIPQCIKEEDTPSDNDSGICMSPESYLGSPQHSPSTRGSPNRSLPSPGVLCGSARPKPYDPPGEKMVAAKVKGEKLDKKLKKMEQNKTAATRYRQKKRAEQEALTGECKELEKKNEALKERADSLAKEIQYLKDLIEEVRKARGKKRVP

Variants of: B1
Settings: with BTRC

Variant | effect of a mutation on the interaction
S219N | decreasing interaction
D218N | decreasing interaction

Variants of: B1
Settings: with BTRC
Remark: another data set of the same source

Variant | effect of a mutation on the interaction
S219N | disrupting interaction
